Results reported in patent US20160222058A1.

target: Angiotensin converting enzyme (ACE); assay: cell-based or functional assay

Row | IC50 (µg/ml), in vitro ACE inhibitory activity | Substance
1 | 9.2 µg/mL | Ovotransferrin hydrolysate (thermolysin then pepsin) of ovotransferrin treated by sonication prior to hydrolysis
2 | 45.6 µg/mL | Ovotransferrin hydrolysate (thermolysin then pepsin) of ovotransferrin treated with beta-mercaptoethanol prior to hydrolysis
3 | 10.7 µg/mL | Ovotransferrin hydrolysate (thermolysin then pepsin) of ovotransferrin treated with dithiothreitol prior to hydrolysis
4 | 320 µg/mL | Ovotransferrin hydrolysate prepared by pepsin, without reducing agent treatment
5 | 198 µg/mL | Ovotransferrin hydrolysate prepared by thermolysin and pepsin in combination, without sonication or reducing agent treatment
6 | 215 µg/mL | Ovotransferrin hydrolysate prepared by thermolysin, without reducing agent treatment
